Data: the supplement of paper PMC10567573

Assay: protein stability index of a GFP-peptide fusion (GPS, HEK-293T) (PSI 1-6); higher = more stable
Conditions: c terminus: native
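Note: lentivirally expressed fusion library, cells FACS-sorted into six equal-sized GFP/DsRed ratio bins, PSI computed from sequencing read fractions per bin weighted by bin number.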

**Q.** With CQPISFSGFGAEDDDLGGLGLGPR [POLD2 addR] as the protein, how does the protein stability index (parent: NP_006221.1) read?
**A.** Its protein stability index is 4.36.

**Q.** With LPALFTDLYSQEITAEEAREALPR [SNF8 addR] as the protein, how does the protein stability index (parent: NP_009172.2) read?
**A.** Its protein stability index is 3.55.

**Q.** For EQRNSRWNTVLRAVKAKTHHLEPR [TRPA1 addR], which protein stability index (parent: NP_015628.1) is on record?
**A.** The protein stability index was 4.5.

**Q.** With HSLRAVSTDPPHHDHHDEFCLMPR [BEX2 addR] as the protein, how does the protein stability index (parent: NP_116010.1) read?
**A.** The protein stability index was 4.61.
